Test results published in PMC2448379.
Where no end group is shown, it is not given here.

The binders below were run against C. elegans PEX-5 TPR domain (267 aa), Gal4p DNA-binding domain fusion (pSL8) (C. elegans) (assay: two-hybrid; yeast strain PCY3; Pex5 TPR domain in pGBT9 (Gal4p DNA-binding domain) with Gal4p activation domain-peptide fusions in pGAD GH; b-galactosidase activity measured with O-nitrophenyl-b-D-galactoside on cells grown at 30 C in liquid selective medium; mean of three independent experiments per strain). Details: scale: nmol O-nitrophenyl-b-D-galactoside hydrolysed/min/mg protein.

Row | Binder | b-Galactosidase activity
1 | Gal4p-SGGVVARAAKM | 293
2 | Gal4p-TWNRETKGLNAVYGKL | 90.3
3 | Gal4p-EGLIVMLERGKL | 143
4 | Gal4p-GKNRGSESHGSARQKL | 57.9
5 | Gal4p-KRVWRRQWSTGRKLKL | 3.8
6 | Gal4p-WYGPGPGCCRRRDLKL (cysteine pairing not given here) | 4.4
7 | Gal4p-QRKANGRDRGGWWAKL | 631
8 | Gal4p-RQRELSANALGGLAKL | 447
9 | Gal4p-NGMTRSGRQGGGFAKL | 352

Each binder was assayed against T1, S. cerevisiae Pex5p TPR domain (305 aa), Gal4p DNA-binding domain fusion (pAH987) (S. cerevisiae) in the same assay as above. Details: scale: nmol O-nitrophenyl-b-D-galactoside hydrolysed/min/mg protein.
T1 sequence (P35056 whole entry, looked up): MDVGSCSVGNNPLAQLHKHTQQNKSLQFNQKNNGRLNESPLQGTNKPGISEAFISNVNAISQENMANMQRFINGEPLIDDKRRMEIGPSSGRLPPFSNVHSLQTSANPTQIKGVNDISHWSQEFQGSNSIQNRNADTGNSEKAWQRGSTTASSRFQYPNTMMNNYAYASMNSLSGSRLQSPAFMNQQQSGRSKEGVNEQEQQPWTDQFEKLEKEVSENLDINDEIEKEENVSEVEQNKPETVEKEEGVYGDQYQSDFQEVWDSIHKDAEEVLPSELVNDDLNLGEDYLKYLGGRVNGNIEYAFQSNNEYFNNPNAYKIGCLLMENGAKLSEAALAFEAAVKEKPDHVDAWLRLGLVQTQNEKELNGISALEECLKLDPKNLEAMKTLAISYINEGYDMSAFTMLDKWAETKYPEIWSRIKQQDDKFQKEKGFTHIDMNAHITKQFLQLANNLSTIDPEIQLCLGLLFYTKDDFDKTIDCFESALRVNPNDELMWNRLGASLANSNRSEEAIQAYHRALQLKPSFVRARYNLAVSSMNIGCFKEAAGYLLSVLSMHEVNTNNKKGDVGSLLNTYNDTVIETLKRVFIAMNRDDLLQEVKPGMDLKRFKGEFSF

Row | Binder | b-Galactosidase activity
10 | Gal4p-FEWGSQGWTRGRMHML | 39
11 | Gal4p-CERSKL [Gal4p-CERSKL] | 163
